Usually stoichiometry N stands for the number of molecules, sites or subunits per partner or assembly.

This is an account of results in article PMC11813153, “Extended receptor repertoire of an adenovirus associated with human obesity” (PLOS Pathogens, 2025).

Data set [1] addresses HAdV-D36 fiber knob domain (FK) (Human adenovirus type 36 (HAdV-D36), strain 275). The data set is described as follows: crystal structure; fiber knobs crystallised alone or co-crystallised with 10 mM carbohydrate; HAdV-D36 FK: hanging drop, PEG 3,350, NH4Ac, 0.1 M Bis-Tris pH 5.5, 4 C.
Data set [2] concerns the molecule itself. Described as above.

“HAdV-D36 fiber knob domain (FK) (domain or fragment)” showed a stoichiometry N in data set [1] of 3.

B1: HAdV-D37 fiber knob (FK) (domain or fragment)
chain: GYLVAWNPKYDTRTLWTTPDTSPNCTIAQDKDSKLTLVLTKCGSQILANVSLIVVAGKYHIINNKTNPKIKSFTIKLLFNKNGVLLDNSNLGKAYWNFRSGNSNVSTAYEKAIGFMPNLVAYPKPSNSKKYARDIVYGTIYLGGKPDQPAVIKTTFNQETGCEYSITFNFSWSKTYENVEFETTSFTFSYIAQE
notes: fiber protein of human adenovirus type 37 (HAdV-D37), knob domain; checked against GenBank ABK59080.1 (HAdV-D37 fiber); also called HAdV-D37 FK; HAdV-D37 wt FK; source: construct, expression and purification as described previously [100]
With B1, the “stoichiometry N” value in data set [2] was 3.
